According to US8734776B2 (ZymoGenetics, Inc., priority 2003, dated 2014):

T1: zcyto20 (Homo sapiens, UniProt Q8IZJ0)
T1 sequence (Q8IZJ0 26-200): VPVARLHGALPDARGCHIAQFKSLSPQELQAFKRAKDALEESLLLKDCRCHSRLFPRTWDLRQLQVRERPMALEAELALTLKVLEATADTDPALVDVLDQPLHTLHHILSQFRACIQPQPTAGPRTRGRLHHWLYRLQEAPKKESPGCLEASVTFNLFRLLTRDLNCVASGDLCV

T2: zcyto24 (Mus musculus, UniProt Q4VK74)
T2 sequence (Q4VK74 20-193): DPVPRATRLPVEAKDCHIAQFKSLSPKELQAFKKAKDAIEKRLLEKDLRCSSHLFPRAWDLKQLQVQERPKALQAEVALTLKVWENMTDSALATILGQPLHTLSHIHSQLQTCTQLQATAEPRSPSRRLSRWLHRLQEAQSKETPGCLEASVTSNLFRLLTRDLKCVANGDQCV

B1: Huzcytor19-Fc: human zcytor19-Fc homodimer soluble receptor (protein)
chain: RPRLAPPQNVTLLSQNFSVYLTWLPGLGNPQDVTYFVAYQSSPTRRRWREVEECAGTKELLCSMMCLKKQDLYNKFKGRVRTVSPSSKSPWVESEYLDYLFEVEPAPPVLVLTQTEEILSANATYQLPPCMPPLDLKYEVAFWKEGAGNKTLFPVTPHGQPVQITLQPAASEHHCLSARTIYTFSVPKYSKFSKPTCFLLEVPEANWA
modifications: left off: a dimerising Fc or GST
notes: human zcytor19-Fc homodimer soluble receptor
B2: Muzcytor19-Ig: murine zcytor19-Ig homodimer soluble receptor (protein)
chain: RPRLAPPRNVTLFSQNFTVYLTWLPGLGSPPNVTYFVTYQSYIKTGWRPVEHCAGIKALVCPLMCLKKLNLYSKFKGRVQAASAHGRSPRVESRYLEYLFDVELAPPTLVLTQMEKILRVNATYQLPPCMPSLELKYQVEFWKEGLGSKTLFPDTPYGQPVQIPLQQGASRRHCLSARTVYTLIDIKYSQFSEPSCIFLEAPGDKRA
modifications: left off: a dimerising Fc or GST
notes: murine zcytor19-Ig homodimer soluble receptor
B3: IL-28B: human IL-28B, previously designated zcyto22, SEQ ID NO:6 (protein, listed as Homo sapiens)
chain: MKLDMTGDCMPVLVLMAAVLTVTGAVPVARLRGALPDARGCHIAQFKSLSPQELQAFKRAKDALEESLLLKDCKCRSRLFPRTWDLRQLQVRERPVALEAELALTLKVLEATADTDPALGDVLDQPLHTLHHILSQLRACIQPQPTAGPRTRGRLHHWLHRLQEAPKKESPGCLEASVTFNLFRLLTRDLNCVASGDLCV
modifications: SIGNAL (1)...(25)
B4: zcyto25: mouse IL-28, SEQ ID NO:10 (protein, listed as Mus musculus)
chain: MKPETAGGHMLLLLLPLLLAAVLTRTQADPVPRATRLPVEAKDCHIAQFKSLSPKELQAFKKAKGAIEKRLLEKDMRCSSHLISRAWDLKQLQVQERPKALQAEVALTLKVWENINDSALTTILGQPLHTLSHIHSQLQTCTQLQATAEPKPPSRRLSRWLHRLQEAQSKETPGCLEDSVTSNLFQLLLRDLKCVASGDQCV
modifications: SIGNAL (1)...(28)

Tests used:
zcyto21 = zcyto21 (Homo sapiens, UniProt Q8IU54); assay: Inhibition of ligand-induced ISRE signaling by soluble receptors, zcyto21; type: cell-based; conditions: ligand Zcyto21 10 ng/ml; soluble receptor 10 micrograms/ml
From the text: (§1) A signal transduction reporter assay can be used to show the inhibitor properties of zcytor19-Fc4 homodimeric and zcytor19-Fc/CRF2-4-Fc heterodimeric soluble receptors on zcyto20, zcyto21 and zcyto24 signaling Human embryonal kidney (HEK) cells overexpressing the zcytor19 receptor are transfected with a reporter plasmid containing an interferon-stimulated response element (ISRE) driving transcription of a luciferase reporter gene. Luciferase activity following stimulation of transfected cells with ligands (including zcyto20 (SEQ ID NO:2), zcyto21 (SEQ ID NO:4), zcyto24 (SEQ ID NO: 8)) reflects the interaction of the ligand with soluble receptor.
(§2) 293 HEK cells overexpressing zcytor19 were transfected as follows: 700,000 293 cells/well (6 well plates) were plated approximately 18 h prior to transfection in 2 milliliters DMEM+10% fetal bovine serum. Per well, 1 microgram pISRE-Luciferase DNA (Stratagene) and 1 microgram pIRES2-EGFP DNA (Clontech,) were added to 6 microliters Fugene 6 reagent (Roche Biochemicals) in a total of 100 microliters DMEM. This transfection mix was added 30 minutes later to the pre-plated 293 cells. Twenty-four hours later the transfected cells were removed from the plate using trypsin-EDTA and replated at approximately 25,000 cells/well in 96 well microliter plates. Approximately 18 h prior to ligand stimulation, media was changed to DMEM+0.5% FBS.
(§3) The signal transduction reporter assays were done as follows: Following an 18 h incubation at 37° C. in DMEM+0.5% FBS, transfected cells were stimulated with 10 ng/ml zcyto20, zcyto21 or zcyto24 and 10 micrograms/ml of the following soluble receptors; human zcytor19-Fc homodimer, human zcytor19-Fc/human CRF2-4-Fc heterodimer, human CRF2-4-Fc homodimer, murine zcytor19-Ig homodimer. Following a 4-hour incubation at 37° C., the cells were lysed, and the relative light units (RLU) were measured on a luminometer after addition of a luciferase substrate. The results obtained are shown as the percent inhibition of ligand-induced signaling in the presence of soluble receptor relative to the signaling in the presence of PBS alone.

zcyto20 = molecular target: T1, zcyto20; assay: Inhibition of ligand-induced ISRE signaling by soluble receptors, zcyto20; type: cell-based; conditions: soluble receptor 10 micrograms/ml; for Percent Inhibition of Ligand-induced ISRE Signaling by Soluble Receptors: ligand Zcyto20 10 ng/ml; for effect on ligand-induced signaling: zcyto20, zcyto21 or zcyto24 10 ng/ml
From the text: as §1, §2, §3

zcyto24 = molecular target: T2, zcyto24; assay: Inhibition of ligand-induced ISRE signaling by soluble receptors, zcyto24; type: cell-based; conditions: ligand Zcyto24 10 ng/ml; soluble receptor 10 micrograms/ml
From the text: as §1, §2, §3

[1] = tested on: encephelomyocarditis virus; assay: Antiviral assay: cytopathic effect in L929 cells; type: cell-based, mouse
[2] = tested on: encephelomyocarditis virus; assay: Antiviral assay: cytopathic effect in HeLa cells; type: cell-based, human
[3] = relative CM concentration .008X
[4] = relative CM concentration .0156X
[5] = relative CM concentration .0325X
[6] = relative CM concentration .0625X
[7] = relative CM concentration .125X

Chain of zcyto21 (Q8IU54 20-200): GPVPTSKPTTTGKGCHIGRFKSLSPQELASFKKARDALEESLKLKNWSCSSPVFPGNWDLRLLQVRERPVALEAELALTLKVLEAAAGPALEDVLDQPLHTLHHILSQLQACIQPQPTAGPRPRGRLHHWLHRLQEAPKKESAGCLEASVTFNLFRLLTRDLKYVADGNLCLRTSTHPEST

Row | Molecule | Percent Inhibition of Ligand-induced ISRE Signaling by Soluble Receptors (zcyto21) [%] | Percent Inhibition of Ligand-induced ISRE Signaling by Soluble Receptors (zcyto20) [%] | effect on ligand-induced signaling (zcyto20) | Percent Inhibition of Ligand-induced ISRE Signaling by Soluble Receptors (zcyto24) [%] | Percentage Cytopathic Effect ([1]; relative CM conc. .008X) [%] | Percentage Cytopathic Effect ([1]; relative CM conc. .0156X) [%] | Percentage Cytopathic Effect ([1]; relative CM conc. .0325X) [%] | Percentage Cytopathic Effect ([1]; relative CM conc. .0625X) [%] | Percentage Cytopathic Effect ([1]; relative CM conc. .125X) [%] | Percentage Cytopathic Effect ([1]; relative CM conc. .25X) [%] | Percentage Cytopathic Effect ([1]; relative CM conc. .5X) [%] | Percentage Cytopathic Effect [2, 3] [%] | Percentage Cytopathic Effect [2, 4] [%] | Percentage Cytopathic Effect [2, 5] [%] | Percentage Cytopathic Effect [2, 6] [%] | Percentage Cytopathic Effect [2, 7] [%] | Percentage Cytopathic Effect ([2]; relative CM concentration .25X) [%] | Percentage Cytopathic Effect ([2]; relative CM concentration .5X) [%]
1 | HuCRF2-4-Fc: human CRF2-4-Fc homodimer soluble receptor | 79 | 80 | No significant effects | 82 | – | – | – | – | – | – | – | – | – | – | – | – | – | –
2 | Huzcytor19-Fc/huCRF2-4-Fc: human zcytor19-Fc/human CRF2-4-Fc heterodimer soluble receptor | 16 | 16 | – | 47 | – | – | – | – | – | – | – | – | – | – | – | – | – | –
3 | B1 | 45 | 92 | – | 90 | – | – | – | – | – | – | – | – | – | – | – | – | – | –
4 | B2 | 103 | 91 | No significant effects | 89 | – | – | – | – | – | – | – | – | – | – | – | – | – | –
5 | B3 | – | – | – | – | 87 | 87 | 87 | 87 | 87 | 87 | 87 | 0 | 0 | 0 | 0 | 0 | 0 | 0
6 | B4 | – | – | – | – | 87 | 87 | 87 | 87 | 87 | 87 | 87 | 10 | 5 | 5 | 0 | 0 | 0 | 0
